We go through four molecules from US20180066058A1 (published 2018).

Where a chain is given by its changes, count along the chain named.

Experiment [1] concerns the target T1, Human ICOS on cells (human, UniProt Q9Y6W8 21-199).
T1 sequence: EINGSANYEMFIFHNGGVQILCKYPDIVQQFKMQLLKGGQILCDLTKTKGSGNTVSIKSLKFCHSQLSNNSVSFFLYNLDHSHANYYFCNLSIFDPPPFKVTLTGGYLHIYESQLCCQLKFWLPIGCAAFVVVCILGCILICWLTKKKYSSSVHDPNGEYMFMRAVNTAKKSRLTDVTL
Put plainly: cell-based or functional assay.

Experiment [2] concerns the target T1, Human ICOS on cells. The experiment in a line: cell-based or functional assay. This is another data set of the same source.
In experiment [3] the target is T1, Human ICOS on cells. Put plainly: flow cytometry on activated human pan T cells (row Human), first donor column.
In experiment [4] the target is T2, Cynomolgus ICOS on activated cynomolgus T cells (cynomolgus, UniProt Q9Y6W8 21-195 (human entry)).
T2 construct: also called NHP ICOS
T2 chain: T1 sequence with T54K, H81R, A129T, L136F, S152T, D176G, V177T, L179P
Put plainly: flow cytometry, AF647 pre-labelled hIgG1 on activated cynomolgus pan T cells, donor 2. How it is done:
(§1) PBMC from whole blood of 2 Mauritian cynomolgus macaques (Wickham Laboratories) were isolated by gradient centrifugation and cultured for 3 days with CD2/CD3/CD28 MACSiBeads (Miltenyi) to induce ICOS expression on their surface. […] Cells were also labelled with V450-CD3 to assess staining on T-cell subsets. Stained cells were run on Attune (Thermofisher) and staining intensity was presented as mean fluorescence intensity (MFI). EC50 was determined using GraphPad Prism.

Experiment [5] deals with T1, Human ICOS on cells. Put plainly: flow cytometry on activated primary human pan T cells; naked hIgG1 detected with AF647 goat anti-human Fc. How it is done: (§2) Pan T-cells (CD3 cells) were isolated and cultured for 3 days with CD3/CD28 dynabeads (Thermofisher) to induce ICOS expression on their surface. […] Stained cells were ran on the Attune and staining intensity was presented as Mean of fluorescence intensity (MFI). EC50 was determined using GraphPad Prism.

Experiment [6] concerns the target T3, human ICOS-mFc (Chimerigen) (human, UniProt Q9Y6W8 21-140).
T3 construct: also called human ICOS receptor; human ICOS Receptor; not shown: mouse Fc of the bought construct
T3 sequence: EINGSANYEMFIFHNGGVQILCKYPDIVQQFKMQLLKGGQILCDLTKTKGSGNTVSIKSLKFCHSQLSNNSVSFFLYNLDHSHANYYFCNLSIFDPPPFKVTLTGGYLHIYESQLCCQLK
The experiment in a line: HTRF neutralisation of Alexa 647 human B7-H2 binding to human ICOS-mFc; human IgG1; mean, n = 4. How it is done:
(§3) 5 μl of ICOS receptor (human ICOS-mFc, 20 nM, 5 nM final or mouse ICOS-mFc 4 nM, 1 nM final (Chimerigen)) was added to required wells. Plate was incubated for 1 hr at room temperature (RT).
(§4) Finally, 5 μl of anti-mouse IgG donor mAb (Southern Biotech) labelled with europium cryptate (Cis Bio), 40 nM, 10 nM final was added to each well and the assay was left in the dark at RT to incubate for a further 2 hours. After incubation, assay was read on Envision plate reader (Perkin Elmer) using a standard HTRF protocol. […] Titration curves and IC50 values [M] were plotted using Graphpad (Prism). IC50 values were calculated by first transforming the data using equation X=Log(X). The transformed data was then fitted using nonlinear regression, using fitting algorithm, log (inhibitor) vs. response—variable slope (four parameters).

The target of experiment [7] is T1, Human ICOS on cells. The experiment in a line: flow cytometry on activated human pan T cells (row Human), second donor column.
Experiment [8] has as its target T1, Human ICOS on cells. The experiment in a line: flow cytometry on activated primary human pan T cells; indirect binding assay; reference STIM001 hIgG1. How it is done: as §2
Experiment [9] addresses T4, mouse ICOS-mFc (Chimerigen) (mouse, UniProt Q9WVS0 21-141, limits assumed).
T4 construct: also called mouse ICOS receptor; mouse ICOS Receptor; not shown: mouse Fc of the bought construct
T4 sequence: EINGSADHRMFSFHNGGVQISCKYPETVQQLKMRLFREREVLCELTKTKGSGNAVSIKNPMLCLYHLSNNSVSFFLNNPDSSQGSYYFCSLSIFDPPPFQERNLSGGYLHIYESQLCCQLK
Put plainly: HTRF neutralisation of Alexa 647 mouse B7-H2 binding to mouse ICOS-mFc; human IgG1; mean, n = 3. How it is done:
as §3, §4

The target in experiment [10] is T2, Cynomolgus ICOS on activated cynomolgus …. Put plainly: flow cytometry, AF647 pre-labelled hIgG1 on activated cynomolgus pan T cells, donor 1. The procedure: as §1
Experiment [11] deals with T5, Human ICOS extracellular domain fused to human Fc (human, UniProt Q9Y6W8 21-140).
T5 construct: Dimeric protein made in house from NCBI NP_036224.1; also called hICOS; hICOS Fc; not shown: human Fc region
T5 sequence: T3 sequence
Put plainly: SPR (ProteOn XPR36), human ICOS ECD-Fc captured, Fab analyte, pH 7.4, 37 C. How it is done: (§5) In addition, a comparison was performed of antibody:antigen binding affinity at different pH values. As before, the dimeric human ICOS protein, presented as the extracellular domain of ICOS fused to a human Fc region, was captured on the anti-human Fc capture surface created using the 3 antibody cocktail, immobilised on the GLC biosensor chip by primary amine coupling. SPR analysis of recombinantly expressed anti-ICOS Fabs was carried out on the ProteOn XPR36 Array system (Biorad). The Fab fragments were used as analyte to generate binding sensorgrams, which were double referenced with a buffer injection (i.e., 0 nM). The subsequent referenced sensorgrams were fitted to the 1:1 model inherent to the ProteOn analysis software. […] Data were fitted to the 1:1 model.

Experiment [12] addresses T5, Human ICOS extracellular domain fused …. Put plainly: SPR (ProteOn XPR36), human ICOS ECD-Fc captured, Fab analyte, pH 7.6, 25 C.
The target is the same in experiment [13]. Put plainly: SPR (ProteOn XPR36), Fc-tagged ICOS captured on anti-human IgG, Fab analyte, 25 C. The procedure: (§6) Fab affinities of the ICOS leads were generated by SPR using the ProteOn XPR3 6 (BioRad). An anti-human IgG capture surface was created on a GLC biosensor chip by primary amine coupling, immobilising three anti-human IgG antibodies (Jackson Labs 109-005-008, 109-006-008 and 309-006-008). […] Binding sensorgrams were double referenced using a buffer injection (i.e. 0 nM), and the data was fitted to the 1:1 model inherent to the ProteOn XPR36 analysis software. The assay was run at 25° C. and using HBS-EP as running buffer.

Experiment [14] has as its target T6, Mouse ICOS extracellular domain fused to human Fc (mouse, UniProt Q9WVS0 21-141).
T6 construct: Made in house from NCBI NP_059508.2; also called mICOS; mICOS Fc; not shown: human Fc region
T6 sequence: T4 sequence
Described as above. The procedure: as §6

The target in experiment [15] is T5, Human ICOS extracellular domain fused …. Put plainly: SPR (ProteOn XPR36), human ICOS ECD-Fc captured, Fab analyte, pH 7.6, 37 C. The procedure:
as §5

Experiment [16] has the same target. The experiment in a line: SPR (ProteOn XPR36), human ICOS ECD-Fc captured, Fab analyte, pH 5.5, 37 C. The procedure: as §5
The target is the same in experiment [17]. Put plainly: SPR (ProteOn XPR36), human ICOS ECD-Fc captured, Fab analyte, pH 5.5, 37 C (second run). The procedure: as §5
In experiment [18] the target is T1, Human ICOS on cells. Put plainly: cell-based or functional assay. This is another data set of the same source.

B1: STIM003 human IgG1 (antibody, V domains shown)
VH: EVQLVESGGGVVRPGGSLRLSCVASGVTFDDYGMSWVRQAPGKGLEWVSGINWNGGDTDYSDSVKGRFTISRDNAKNSLYLQMNSLRAEDTALYYCARDFYGSGSYYHVPFDYWGQGILVTVSS
VL: EIVLTQSPGTLSLSPGERATLSCRASQSVSRSYLAWYQQKRGQAPRLLIYGASSRATGIPDRFSGDGSGTDFTLSISRLEPEDFAVYYCHQYDMSPFTFGPGTKVDIKR
notes: Human IgG1 format; Conjugated with AF647 in the direct staining assays, coupled to beads or plates in the MJ cell assays; also called STIM003 (hIgG1); STIM003 hIgG1
Consider B1, for which the “EC50 (Molar unit), NK primary cell ADCC assay on ICOS-transfected CCRF-CEM cells, 4 hour time point, Donor 4” value with Human ICOS on cells [1] is ~0.003 nM. Also, in the experiment with Human ICOS on cells [1], the “EC50 (Molar unit), NK primary cell ADCC assay on ICOS-transfected CCRF-CEM cells, 4 hour time point, Donor 5” value turned out to be 0.000895 nM. For the same molecule, the “EC50 (Molar unit), NK primary cell ADCC assay on ICOS-transfected CCRF-CEM cells, 4 hour time point, Donor 6” value with Human ICOS on cells [1] turned out to be 0.00103 nM. In the experiment with Human ICOS on cells [2], the “EC50 (Molar unit), NK primary cell ADCC assay on MJ cells, 2 hour time point, Donor 1” value amounted to 0.00233 nM. For the same molecule, in the experiment with Human ICOS on cells [2], the “EC50 (Molar unit), NK primary cell ADCC assay on MJ cells, 2 hour time point, Donor 2” value came out at 0.0358 nM. Besides, the “EC50 (Molar unit), NK primary cell ADCC assay on MJ cells, 2 hour time point, Donor 3” value in the experiment with Human ICOS on cells [2] worked out at 0.101 nM. Besides, the EC50 with Human ICOS on cells [3] was 2.29 nM; in [4], 4.83 nM; in the experiment with Human ICOS on cells [5], 0.148 nM; in the experiment with Human ICOS on cells [7], 0.895 nM; in experiment [10], 4.58 nM. Besides, the figures for the half-inhibitory concentration (IC50) in [6] and in experiment [9] were 1.3 nM and 0.1 nM, respectively. The “fold lower EC50 than STIM001” value with Human ICOS on cells [8] was ~100 fold.

B2: STIM003 Fab (Fab, V domains shown)
VH: B1 VH
VL: EIVLTQSPGTLSLSPGERATLSCRASQSVSRSYLAWYQQKRGQAPRLLIYGASSRATGIPDRFSGDGSGTDFTLSISRLEPEDFAVYYCHQYDMSPFTFGPGTKVDIK
notes: Recombinantly expressed purified Fab
As for B2, the Kd in experiment [11] was 1.71 nM; in [12], 1.31 nM; in experiment [13] it was 1.3 nM; in experiment [14], 0.4 nM; in experiment [15], 1.98 nM; in experiment [16], 1.02 nM. The molecule further returned a dissociation constant Kd in experiment [17] of 1.15 nM.

B3: STIM001 human IgG1 (antibody, V domains shown)
VH: QVQVVQSGAEVKKPGASVKVSCKASGYTFSTFGITWVRQAPGQGLEWMGWISAYNGDTNYAQNLQGRVIMTTDTSTSTAYMELRSLRSDDTAVYYCARSSGHYYYYGMDVWGQGTTVTVSS
VL: DIVMTQSPLSLPVTPGEPASISCRSSQSLLHSNEYNYLDWYLQKPGQSPQLLIFLGSNRASGVPDRFSGSGSGTDFTLKITRVEAEDVGIYYCMQSLQTPLTFGGGTKVEIKR
notes: Human IgG1 format; Conjugated with AF647 in the direct staining assays, coupled to beads or plates in the MJ cell assays; also called STIM001 (hIgG1); STIM001 hIgG1
In the case of B3, in the experiment with Human ICOS on cells [1], the “EC50 (Molar unit), NK primary cell ADCC assay on ICOS-transfected CCRF-CEM cells, 4 hour time point, Donor 4” value turned out to be 0.00392 nM; the “EC50 (Molar unit), NK primary cell ADCC assay on ICOS-transfected CCRF-CEM cells, 4 hour time point, Donor 5” value came to 0.00395 nM; the “EC50 (Molar unit), NK primary cell ADCC assay on ICOS-transfected CCRF-CEM cells, 4 hour time point, Donor 6” value worked out at 0.00375 nM. In addition, in the experiment with Human ICOS on cells [2], the “EC50 (Molar unit), NK primary cell ADCC assay on MJ cells, 2 hour time point, Donor 1” value was 0.121 nM; the “EC50 (Molar unit), NK primary cell ADCC assay on MJ cells, 2 hour time point, Donor 2” value was 0.529 nM; the “EC50 (Molar unit), NK primary cell ADCC assay on MJ cells, 2 hour time point, Donor 3” value was 2.92 nM. The half-maximal effective concentration (EC50) with Human ICOS on cells [3] came to 221 nM. In the experiment with Human ICOS on cells [5], this molecule returned a half-maximal effective concentration (EC50) of 17 nM. This molecule had a half-inhibitory concentration (IC50) in experiment [6] of 2.2 nM. The same molecule came in with a concentration for a half-maximal effect (EC50) with Human ICOS on cells [7] of 121 nM. This molecule also gave a concentration for half-maximal inhibition (IC50) in [9] of 6.5 nM. Further, the concentration giving a half-maximal response (EC50) in experiment [10] amounted to 222 nM. Further, in the experiment with Human ICOS on cells [18], the “EC50 (Molar unit), NK primary cells ADCC assay on MJ cells, 2 hour time point, Donor 1” value was found to be 0.121 nM and the “EC50 (Molar unit), NK primary cells ADCC assay on MJ cells, 2 hour time point, Donor 2” value was 0.529 nM.

B4: STIM001 Fab (Fab, V domains shown)
VH: B3 VH
VL: DIVMTQSPLSLPVTPGEPASISCRSSQSLLHSNEYNYLDWYLQKPGQSPQLLIFLGSNRASGVPDRFSGSGSGTDFTLKITRVEAEDVGIYYCMQSLQTPLTFGGGTKVEIK
notes: as for B2
Turning to B4, the Kd in [11] came out at 63.5 nM; in experiment [12] it was 44 nM; in experiment [13] it was 44 nM; in experiment [14], 407 nM; in [15] it was 42.6 nM; in [16], 73.1 nM. The molecule further displayed a Kd in experiment [17] of 80.3 nM.
